From paper PMC6786648

Biological target: EXP1 with G to L point mutations of the first glycine residues of the two GXXG motifs of the TM domain, Ty-tagged (P. falciparum) (UniProt Q8IIF0)
Assay: cross-linking; in vivo: parasite cultures in PBS with 1% formaldehyde (PFA), 37°C, 30 minutes, quenched with 30 mM Tris-HCl pH 8.0; extracts of treated and untreated cells immunoblotted with α-Ty

EXP1 with G to L point mutations of the first glycine residues of the two GXXG motifs of the TM domain, Ty-tagged (from UniProt Q8IIF0 1-162) (natural protein)
stoichiometry N: 2
